Experimental data: patent US20130288372A1 (Bristol-Myers Squibb, published 2013)
Positions count from the first letter of the chain named. Blank lines part the entries; values can stand above or below the molecule they belong to.

Experiments:
Human IL-23 [1] = biological target: T1, Human IL-23 (human, UniProt Q9NPF7 20-189; P29460 23-328); experiment: cell-based or functional assay
T1 sequence (looked up) 1: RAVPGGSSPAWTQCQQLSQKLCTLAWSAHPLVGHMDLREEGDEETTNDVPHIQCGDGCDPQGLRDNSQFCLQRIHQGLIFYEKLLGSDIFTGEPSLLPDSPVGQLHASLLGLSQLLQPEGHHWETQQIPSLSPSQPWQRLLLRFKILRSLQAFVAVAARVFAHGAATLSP
T1 sequence (looked up) 2: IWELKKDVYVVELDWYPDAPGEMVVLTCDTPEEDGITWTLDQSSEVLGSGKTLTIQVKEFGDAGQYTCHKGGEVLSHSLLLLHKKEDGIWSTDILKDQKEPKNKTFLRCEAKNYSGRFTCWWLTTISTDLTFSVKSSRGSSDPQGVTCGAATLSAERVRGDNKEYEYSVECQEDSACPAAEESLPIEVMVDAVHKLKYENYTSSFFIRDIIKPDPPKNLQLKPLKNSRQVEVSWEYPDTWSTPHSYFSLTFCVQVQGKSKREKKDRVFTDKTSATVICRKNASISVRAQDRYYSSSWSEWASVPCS

Human IL-23 [2] = biological target: T1, Human IL-23; experiment: SPR (Biacore T100), Adnectin captured by anti-His mAb, IL-23 injected, 25 C
Procedure: The anti-His antibody, mAb050 (RnD Systems, MN) was diluted to 20 μg/mL in acetate, pH 5.0 and immobilized to ˜9000 RU on flow cells 1 and 2 of a CM5 chip surface (GE Healthcare, Piscataway, N.J.) according to the manufacturer's instructions. All surface plasmon experiments were conducted in HBS-EP (10 mM Hepes 150 mM NaCl 3 mM EDTA 0.05% Surfactant P20) at 25° C. IL-23 was injected over anti-His mAb captured Adnectins for 2 minutes followed by a 10 minute dissociation phase. Kinetic parameters were calculated using the T100. Biaevaluation.

Human IL-23 [3] = biological target: T1, Human IL-23; experiment: competitive ELISA, ratio of IC50 against parent 1454B08
Procedure: (§1) Adnectin variants were tested by ELISA for their ability to bind IL-23 in a manner that was competitive with the binding site of the native IL-23 receptor (IL-23R). Recombinant human IL-23R-Fc (R&D Systems, Minneapolis, Minn.) was coated overnight at 4° C. on a NUNC® Maxisorp plate (Thermo Fisher Scientific, Denmark) with 50 μL at 4 μg/mL in PBS. All washing was performed with PBST (PBS with 0.05% (w/v) Tween) using an automated plate washer (Biotek, Vt.). OptEIA buffer (BD Bioscience, CA) was used as block and assay diluent. Adnectin dilutions ranging from 200 nM to 28 pM were pre-incubated with 1 nM IL-23 for an hour before transferring to blocked IL-23R-Fc coated plates for 30 minutes. Bound IL-23 was detected via anti-IL-23 (GeneTex, CA) and anti-mouse-HRP (R&D Systems, MN) followed by TMB (3,3′,5,5′-tetramethylbenzidine) (BD Bioscience, CA) addition. Typical development time was 10 minutes. […] IC50s were generated from the average of four runs with an in-house curve fitting application.

Human IL-23 [4] = biological target: T1, Human IL-23; experiment: competitive ELISA: Adnectin pre-incubated with 1 nM IL-23, binding to coated IL-23R-Fc
Procedure: as §1

pSTAT3 IC50 (nM) (Human IL-23 [1]): 36.5 nM
Molecule: anti-p19 polyclonal antibody (AF1716)

pSTAT3 IC50 (nM) (Human IL-23 [1]): 0.06 nM
B1: Anti-IL-23 Adnectin 1866F10 (designed binder)
chain: MGVSDVPRDLEVVAATPTSLLISWDHDYPYRRYYRITYGETGGNSPVQEFTVPRNINTATISGLKPGVDYTITVYAVTSTLKYDIQYSPISINYRTEIDKPSQHHHHHH

pSTAT3 IC50 (nM) (Human IL-23 [1]): 0.03 nM
B2: Anti-IL-23 Adnectin 1866C02 (designed binder)
chain: B1 chain with D27N, P29T, Y30W, R31Y, N55G, I56V, N57D, T80S, L81Y, S88P

pSTAT3 IC50 (nM) (Human IL-23 [1]): 0.03 nM
B3: Anti-IL-23 Adnectin 1866D11 (designed binder)
chain: B1 chain with R54K, N55D, I56V, N57D, T80S, L81Y, S88P

Kd (Human IL-23 [2]): 3.72 nM
koff (Human IL-23 [2]): 0.000409 s⁻¹
kon (Human IL-23 [2]): 110000 M⁻¹ s⁻¹
pSTAT3 IC50 (nM) (Human IL-23 [1]): 0.3 nM
Activity (parent/mutant) (Human IL-23 [3]): 1
IC50 (Human IL-23 [4]): 1 nM
B4: Anti-IL-23 Adnectin 1454B08 (designed binder)
chain: B1 chain with D25E, R54K, N55D, I56V, N57D, T80S, L81Y, I85M
notes: 10Fn3-based Adnectin expressed in E. coli followed by a HIS6 tag; Fn3 domain is positions 3-96 of the entry; also called Parent

Activity (parent/mutant) (Human IL-23 [3]): 0.8
IC50 (Human IL-23 [4]): 1.2 nM
B5: 1454B08 Y73→R (designed binder)
chain: B1 chain with D25E, R54K, N55D, I56V, N57D, Y75R, T80S, L81Y, I85M
notes: Point variant of 1454B08

Kd (Human IL-23 [2]): 2.8 nM
koff (Human IL-23 [2]): 0.000227 s⁻¹
kon (Human IL-23 [2]): 81000 M⁻¹ s⁻¹
pSTAT3 IC50 (nM) (Human IL-23 [1]): 0.45 nM
B6: Anti-IL-23 Adnectin 1454H11 (designed binder)
chain: B1 chain with D25E, N55E, I56D, N57S, T80S, L81Y, I85M
notes: 10Fn3-based Adnectin expressed in E. coli followed by a HIS6 tag; Fn3 domain is positions 3-96 of the entry

Activity (parent/mutant) (Human IL-23 [3]): 1.9
IC50 (Human IL-23 [4]): 0.51 nM
B7: 1454B08 V45→E (designed binder)
chain: B1 chain with D25E, V47E, R54K, N55D, I56V, N57D, T80S, L81Y, I85M
notes: Point variant of 1454B08

Kd (Human IL-23 [2]): 4.75 nM
koff (Human IL-23 [2]): 0.000525 s⁻¹
kon (Human IL-23 [2]): 111000 M⁻¹ s⁻¹
B8: Anti-IL-23 Adnectin 1454F05 (designed binder)
chain: MGVSDVPRDLEVVAATPTSLLISWYMHYPYSRYYRITYGETGGNSPVQEFTVPKQHDTATISGLKPGVDYTITVYAVTSSYKYDMQYSPISINYRTEIDKPSQHHHHHH
notes: as for B6

Activity (parent/mutant) (Human IL-23 [3]): 0.03
IC50 (Human IL-23 [4]): 35 nM
B9: 1454B08 Y81→A (designed binder)
chain: B8 chain with Y25E, M26H, H27D, S31R, Q55D, H56V, Y83A
notes: Point variant of 1454B08

Kd (Human IL-23 [2]): 32.6 nM
koff (Human IL-23 [2]): 0.000236 s⁻¹
kon (Human IL-23 [2]): 7280 M⁻¹ s⁻¹
pSTAT3 IC50 (nM) (Human IL-23 [1]): 30.7 nM
B10: Anti-IL-23 Adnectin 1241A05 (designed binder)
chain: B8 chain with Y25N, M26H, H27N, P29S, S31Y, K54R, Q55G, H56V, D57A
notes: 10Fn3-based Adnectin expressed in E. coli followed by a HIS6 tag; Fn3 domain is positions 3-96 of the entry; also called Clone 1241A05

Activity (parent/mutant) (Human IL-23 [3]): 0.4
IC50 (Human IL-23 [4]): 2.2 nM
B11: 1454B08 V75→Y (designed binder)
chain: B8 chain with Y25E, M26H, H27D, S31R, Q55D, H56V, V77Y
notes: Point variant of 1454B08

Activity (parent/mutant) (Human IL-23 [3]): 1
IC50 (Human IL-23 [4]): 1 nM
B12: 1454B08 T35→Q (designed binder)
chain: B8 chain with Y25E, M26H, H27D, S31R, T37Q, Q55D, H56V
notes: Point variant of 1454B08

Kd (Human IL-23 [2]): 7.45 nM
koff (Human IL-23 [2]): 0.000928 s⁻¹
kon (Human IL-23 [2]): 125000 M⁻¹ s⁻¹
B13: Anti-IL-23 Adnectin 1454F09 (designed binder)
chain: B1 chain with D27N, P29S, N55H, I56T, N57D, T80S, L81Y, I85M
notes: as for B6

Kd (Human IL-23 [2]): 9.57 nM
koff (Human IL-23 [2]): 0.000438 s⁻¹
kon (Human IL-23 [2]): 45700 M⁻¹ s⁻¹
pSTAT3 IC50 (nM) (Human IL-23 [1]): 0.48 nM
B14: Anti-IL-23 Adnectin 1454D02 (designed binder)
chain: B1 chain with T80S, L81Y, I85M
notes: 10Fn3-based Adnectin expressed in E. coli followed by a HIS6 tag (captured by anti-His mAb in SPR)

Activity (parent/mutant) (Human IL-23 [3]): 0.08
IC50 (Human IL-23 [4]): 13 nM
B15: 1454B08 Y28→A (designed binder)
chain: B8 chain with Y25E, M26H, H27D, Y30A, S31R, Q55D, H56V
notes: Point variant of 1454B08

Activity (parent/mutant) (Human IL-23 [3]): 0.6
IC50 (Human IL-23 [4]): 1.7 nM
B16: 1454B08 T35→N (designed binder)
chain: B8 chain with Y25E, M26H, H27D, S31R, T37N, Q55D, H56V
notes: Point variant of 1454B08

Kd (Human IL-23 [2]): 10.1 nM
koff (Human IL-23 [2]): 0.000569 s⁻¹
kon (Human IL-23 [2]): 56600 M⁻¹ s⁻¹
B17: Anti-IL-23 Adnectin 1454E09 (designed binder)
chain: B8 chain with Y25M, M26H, H27D, S31R, K54M, Q55E, H56E
notes: as for B6

Activity (parent/mutant) (Human IL-23 [3]): 3.8
IC50 (Human IL-23 [4]): 0.26 nM
B18: 1454B08 Y73→Q (designed binder)
chain: B8 chain with Y25E, M26H, H27D, S31R, Q55D, H56V, Y75Q
notes: Point variant of 1454B08; also called Tyr 73→Gln

Activity (parent/mutant) (Human IL-23 [3]): 1.7
IC50 (Human IL-23 [4]): 0.6 nM
B19: 1454B08 T35→E (designed binder)
chain: B8 chain with Y25E, M26H, H27D, S31R, T37E, Q55D, H56V
notes: Point variant of 1454B08

Activity (parent/mutant) (Human IL-23 [3]): 1.8
IC50 (Human IL-23 [4]): 0.54 nM
B20: 1454B08 V45→N (designed binder)
chain: B8 chain with Y25E, M26H, H27D, S31R, V47N, Q55D, H56V
notes: Point variant of 1454B08

Kd (Human IL-23 [2]): 9.43 nM
koff (Human IL-23 [2]): 0.000447 s⁻¹
kon (Human IL-23 [2]): 47400 M⁻¹ s⁻¹
B21: Anti-IL-23 Adnectin 1454F07 (designed binder)
chain: B8 chain with M26H, H27M, P29S, S31R, K54R, Q55D, H56V
notes: as for B6

Activity (parent/mutant) (Human IL-23 [3]): 0.02
IC50 (Human IL-23 [4]): 49 nM
B22: 1454B08 T35→D (designed binder)
chain: B8 chain with Y25E, M26H, H27D, S31R, T37D, Q55D, H56V
notes: Point variant of 1454B08; also called Thr35→Asp

Kd (Human IL-23 [2]): 2.27 nM
koff (Human IL-23 [2]): 0.000677 s⁻¹
kon (Human IL-23 [2]): 298000 M⁻¹ s⁻¹
B23: Anti-IL-23 Adnectin 1454B05 (designed binder)
chain: B8 chain with M26H, H27D, S31R, Q55D, H56E, D57E
notes: as for B6

Activity (parent/mutant) (Human IL-23 [3]): 0.1
IC50 (Human IL-23 [4]): 8.3 nM
B24: 1454B08 P87→A (designed binder)
chain: B8 chain with Y25E, M26H, H27D, S31R, Q55D, H56V, P89A
notes: Point variant of 1454B08

Activity (parent/mutant) (Human IL-23 [3]): 0.2
IC50 (Human IL-23 [4]): 5.7 nM
B25: 1454B08 V75→K (designed binder)
chain: B8 chain with Y25E, M26H, H27D, S31R, Q55D, H56V, V77K
notes: Point variant of 1454B08

Activity (parent/mutant) (Human IL-23 [3]): 0.8
IC50 (Human IL-23 [4]): 1.2 nM
B26: 1454B08 Y73→N (designed binder)
chain: B8 chain with Y25E, M26H, H27D, S31R, Q55D, H56V, Y75N
notes: Point variant of 1454B08

Activity (parent/mutant) (Human IL-23 [3]): 2.9
IC50 (Human IL-23 [4]): 0.34 nM
B27: 1454B08 V45→Q (designed binder)
chain: B8 chain with Y25E, M26H, H27D, S31R, V47Q, Q55D, H56V
notes: Point variant of 1454B08

Activity (parent/mutant) (Human IL-23 [3]): 1.2
IC50 (Human IL-23 [4]): 0.83 nM
B28: 1454B08 V45→D (designed binder)
chain: B8 chain with Y25E, M26H, H27D, S31R, V47D, Q55D, H56V
notes: Point variant of 1454B08

Activity (parent/mutant) (Human IL-23 [3]): 1.5
IC50 (Human IL-23 [4]): 0.65 nM
B29: 1454B08 Y73→A (designed binder)
chain: B8 chain with Y25E, M26H, H27D, S31R, Q55D, H56V, Y75A
notes: Point variant of 1454B08

Kd (Human IL-23 [2]): 3.91 nM
koff (Human IL-23 [2]): 0.000468 s⁻¹
kon (Human IL-23 [2]): 120000 M⁻¹ s⁻¹
pSTAT3 IC50 (nM) (Human IL-23 [1]): 0.44 nM
B30: Anti-IL-23 Adnectin 1454C03 (designed binder)
chain: B8 chain with Y25D, H27Y, Q55E, H56Y
notes: as for B6

Activity (parent/mutant) (Human IL-23 [3]): 0.4
IC50 (Human IL-23 [4]): 2.3 nM
B31: 1454B08 V75→Q (designed binder)
chain: B8 chain with Y25E, M26H, H27D, S31R, Q55D, H56V, V77Q
notes: Point variant of 1454B08
